For data set [1], the system named is O=C(CO)[C@@H](O)[C@H](O)[C@H](O)COP(=O)(O)O. Nature of the data set: purified protein. The settings on record: TPP, Mg2+ donor substrate; substrate cleft.
Data set [2] relates to O=C[C@H](O)[C@H](O)[C@H](O)COP(=O)(O)O. Nature of the data set: purified protein. The settings on record: TPP, Mg2+ acceptor substrate; substrate cleft.
Data set [3] concerns O=C(CO)[C@@H](O)[C@H](O)COP(=O)(O)O. The data set can be described thus: purified protein. The settings on record: TPP, Mg2+ donor substrate; substrate cleft.
Data set [4] concerns the molecule itself. Nature of the data set: crystal structure; TBTKT with TPP and Mg2+, space group P1, four molecules (two dimers) in the asymmetric unit, 2.5 Å; crystals from 0.1 M ammonium acetate, 0.1 M bis-tris pH 5.5, 17% w/v PEG 10 000, 22°C.

By Km is commonly meant the concentration of substrate that gives half-maximal velocity. For “transketolase (TBTKT) (Mycobacterium tuberculosis H37Rv)”, the Km in data set [1] came to 0.63 ± 0.09 mM; in data set [2], 0.82 ± 0.12 mM; in data set [3], 0.35 ± 0.12 mM.

B1: transketolase from Mycobacterium tuberculosis (TBTKT) (enzyme)
chain: MTTLEEISALTRPRHPDYWTEIDSAAVDTIRVLAADAVQKVGNGHPGTAMSLAPLAYTLFQRTMRHDPSDTHWLGRDRFVLSAGHSSLTLYIQLYLGGFGLELSDIESLRTWGSKTPGHPEFRHTPGVEITTGPLGQGLASAVGMAMASRYERGLFDPDAEPGASPFDHYIYVIASDGDIEEGVTSEASSLAAVQQLGNLIVFYDRNQISIEDDTNIALCEDTAARYRAYGWHVQEVEGGENVVGIEEAIANAQAVTDRPSFIALRTVIGYPAPNLMDTGKAHGAALGDDEVAAVKKIVGFDPDKTFQVREDVLTHTRGLVARGKQAHERWQLEFDAWARREPERKALLDRLLAQKLPDGWDADLPHWEPGSKALATRAASGAVLSALGPKLPELWGGSADLAGSNNTTIKGADSFGPPSISTKEYTAHWYGRTLHFGVREHAMGAILSGIVLHGPTRAYGGTFLQFSDYMRPAVRLAALMDIDTIYVWTHDSIGLGEDGPTHQPIEHLSALRAIPRLSVVRPADANETAYAWRTILARRNGSGPVGLILTRQGVPVLDGTDAEGVARGGYVLSDAGGLQPGEEPDVILIATGSEVQLAVAAQTLLADNDILARVVSMPCLEWFEAQPYEYRDAVLPPTVSARVAVEAGVAQCWHQLVGDTGEIVSIEHYGESADHKTLFREYGFTAEAVAAAAERALDN
notes: also called Rv1449; rv1449c gene product
The stoichiometry N is a count of units in the complex or per binding partner. B1: the “stoichiometry N” value in data set [4] was determined as 2.

For the origin of these results see PMC3352088, “Structure and function of the transketolase from Mycobacterium tuberculosis and comparison with the human enzyme” (Open Biology, 2012).
